Experiment [1] concerns the target mouse PD-L1 on the surface of mouse tumor cell lines A20 and CT26 (mouse) (UniProt Q9EP73). Kind of experiment: flow cytometry, PE-labelled protein, 0.5 ug in 100 ul, A20 cells (high PD-L1), after Fc block; A20-Blank X-AMean 76.61.
Experiment [2] has the same target. Kind of experiment: flow cytometry, PE-labelled protein, 2.5 ug in 100 ul, A20 cells (high PD-L1), after Fc block; A20-Blank X-AMean 76.61.
The target is the same in experiment [3]. Nature of the experiment: flow cytometry, PE-labelled protein, 2.5 ug in 100 ul, CT26 cells (low PD-L1), after Fc block; CT26-Blank X-AMean printed 254.50. (In general: A flow cytometer gives signals particle by particle.)
For experiment [4], the target named is recombinant human PD-L1 antigen (human) (UniProt Q9NZQ7). Nature of the experiment: SPR (Biacore T200), antibody captured on anti-human IgG Fc CM5 chip, recombinant human PD-L1 as analyte, 1:1 Langmuir fit. (SPR reads the build-up and loss of mass on a sensor chip optically.)
Chain of UniProt Q9NZQ7 (Q9NZQ7 19-238 limits assumed): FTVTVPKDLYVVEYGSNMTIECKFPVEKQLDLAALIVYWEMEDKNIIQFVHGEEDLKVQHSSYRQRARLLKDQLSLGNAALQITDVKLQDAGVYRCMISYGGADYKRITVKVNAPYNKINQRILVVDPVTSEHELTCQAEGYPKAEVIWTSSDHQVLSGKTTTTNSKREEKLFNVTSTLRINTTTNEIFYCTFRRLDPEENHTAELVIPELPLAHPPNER
The target in experiment [5] is recombinant human PD-1 antigen (human) (UniProt Q15116). Nature of the experiment: SPR (Biacore T200), antibody captured on anti-human IgG Fc CM5 chip, recombinant human PD-1 as analyte, 1:1 Langmuir fit.
Chain of UniProt Q15116 (Q15116 25-167 limits assumed): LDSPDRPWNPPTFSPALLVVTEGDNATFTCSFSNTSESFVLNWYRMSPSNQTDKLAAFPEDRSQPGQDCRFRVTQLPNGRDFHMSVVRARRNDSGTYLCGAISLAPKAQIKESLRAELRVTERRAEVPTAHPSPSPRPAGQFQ

The Kd is a measure of binding affinity in units of concentration. As usually defined, the koff is the rate constant with which the complex falls apart. By kon is commonly meant the rate constant with which the complex forms.

Chain of UniProt Q9EP73 (Q9EP73 19-290): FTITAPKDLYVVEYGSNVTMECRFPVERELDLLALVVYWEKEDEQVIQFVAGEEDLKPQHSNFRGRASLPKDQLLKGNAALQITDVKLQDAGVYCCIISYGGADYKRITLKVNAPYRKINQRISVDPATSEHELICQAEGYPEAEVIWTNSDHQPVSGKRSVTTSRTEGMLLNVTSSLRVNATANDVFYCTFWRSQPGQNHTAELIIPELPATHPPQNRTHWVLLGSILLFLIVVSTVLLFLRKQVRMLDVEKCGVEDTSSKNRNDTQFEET

“anti-PD-L1(10F.9G2) antibody-HC-mIL-10 fusion protein (from UniProt P18893 19-178)”: the X-AMean in experiment [1] worked out at 1830; in experiment [2] it was 5930; in experiment [3], 590.
The matching figures for “rat-anti-mouse PD-L1 monoclonal antibody 10F.9G2”: 949, 4990 and 885.

B1: anti-human PD-L1 antibody 5G11 (antibody, from another filing, V domains shown)
VH: QVQLKQSGPGLVQPSQSLSITCTVSGFSLTTYGVHWVRQSPGKGLEWLGVIWRGVTTDYNAAFMSRLTITKDNSKSQVFFKMNSLQANDTAIYYCARLGFYAMDYWGQGTSVTVSS
VL: SIVMTQTPKFLLVSAGDRVTITCKASQSVSNDVAWYQQKPGQSPKLLIYYAANRYTGVPDRFTGSGYGTDFTFTISIVQAEDLAVYFCQQDYTSPYTFGGGTKLEIK
Turning to B1, in experiment [4], the Kd was found to be 0.29 nM, the off-rate constant (koff) worked out at 0.000779 s⁻¹ and the on-rate constant (kon) worked out at 2.65e+06 M⁻¹ s⁻¹.

B2: anti-human PD-1 antibody 7A4D (antibody, from another filing, V domains shown)
VH: QIQLVQSGSELKKPGASVKVSCKASGYTFTNFGMNWVRQAPGQGLKWMGWISGYTREPTYAADFKGRFVISLDTSVSTAYLQISSLKAEDTAVYYCARDVFDYWGQGTLVTVSS
VL: DIVLTQSPASLAVSPGQRATITCRASESVDNYGYSFMNWFQQKPGQPPKLLIYRASNLESGVPARFSGSGSRTDFTLTINPVEADDTANYYCQQSNADPTFGQGTKLEIKR
Turning to B2, in experiment [5], the Kd turned out to be 0.83 nM, the koff is 0.000806 s⁻¹ and the kon was determined as 974000 M⁻¹ s⁻¹.

The values above are taken from US20220306713A1.
